Source: patent US20020137891A1, “Protein scaffold and its use to multimerise monomeric polypeptides” (priority 1999, published 2002)
Where two headings read alike, the source gives them in different places.

What was measured:
[1] = tested on: COS-7, PC12, and SH-SY5Y cells; conditions: cited from earlier work
[2] = tested on: bacteriophage T4 (T4D0); assay: Growth (plaque formation) of bacteriophage T4 at 37° C. in transformed wild-type and groEL mutant strains; type: cell-based, E. coli; conditions: text prints 30° C. (Table 3)
[3] = tested on: bacteriophage T4 (T4D0); assay: as above; type: cell-based, E. coli; design: key: +++: normal plaque-forming ability relative to wild-type groEL^+ strain, in terms of both number and size; ++: 5-fold fewer plaques relative to wild-type groEL^+ strain, or both; 10-fold fewer plaques, or plaque size reduced relative to wild-type groEL^+ strain, or both; +/−: 10^2-fold fewer plaques and plaque size reduced relative to wild-type groEL^+ strain; no visible plaques (<10^−4); conditions: pJC plasmid
Text: (§1) Bacterial and bacteriophage strains. The E. coli strains used in this study were: C41(DE3), a mutant of BL21(DE3) capable of expressing toxic genes (Miroux, B. & Walker, J. E. (1996) J. Mol. Biol. 260, 289-298); SV2 (B178groEL44), SV3 (B178groEL59) and SV6 (B178groEL673): isogenic strains carrying temperature-sensitive alleles of groEL; SV1(=B178) (Georgopoulos, C., Hendrix, R. W., Casjens, S. R. & Kaiser, A. D. (1973) J. Mol. Biol. 76, 45-60), AI90 (ΔgroEL::kan^R) [pBAD-EL] (Ivic, A., Olden, D., Wallington, E. J. & Lund, P. A. (1997) Gene 194, 1-8), and TG1 (Gibson, T. J. (1984) Ph.D. thesis, University of Cambridge, U.K). Bacteriophage λb2cI (Zeilstra-Ryalls, J., Fayet, O., Baird, L. & Georgopoulos, C. (1993) J. Bacteriol. 175, 1134-1143) was used according to standard methods (Arber, W., Enquist, L., Hohn, B., Murray, N. E. & Murray, K. (1983) in Lambda II., ed. R. W. Hendrix, J. W. r., F. W. Stahl and R. A. Weisberg (Cold Spring Harbor Laboratory, Cold Spring Harbor, N.Y.), pp. 433-466); plaque formation was assayed at 30° C. T4D0, a derivative of bacteriophage T4 (Zeilstra-Ryalls, J., Fayet, O., Baird, L. & Georgopoulos, C. (1993) J. Bacteriol. 175, 1134-1143), was used according to standard methods (Karam, J. D. (1994) Molecular biology of bacteriophage T4. (American Society for Microbiology, Washington, D.C.)); plaque formation was assayed at 37° C.
(§2) Bacteriophage λ requires the chaperonins GroES and GroEL for protein folding during morphogenesis; bacteriophage T4 requires GroEL and Gp31, the latter being encoded by the bacteriophage genome (Zeilstra-Ryalls, J., Fayet, O. & Georgopoulos, C. (1991) Annu. Rev. Microbiol. 45, 301-325). Nine groE alleles which fail to support λ growth have been sequenced (Zeilstra-Ryalls, J., Fayet, O., Baird, L. & Georgopoulos, C. (1993) J. Bacteriol. 175, 1134-1143). We examined the ability of MC7, over-expressed from the constitutive tet promoter on a high-copy number vector (see FIG. 2), to complement three mutant groEL alleles for plaque formation by λ (b2cI) at 30° C. (Table 3) and T4 at 37° C. (Table 4).

[4] = tested on: E. coli SV2 groEL44; assay: In vivo complementation of thermosensitive groEL mutant at 43° C., strain SV2; type: cell-based; conditions: for Relative colony forming ability, SV2 groEL44: pJC plasmid, relative to growth at 30° C.
Method: (§3) In vivo complementation experiments. Complementation experiments were performed by transforming electro-competent SV2 or SV6 cells with the pJC series of expression vectors and plating an aliquot of the transformation reactions directly at 43° C. The percentage of viable cells relative to the growth at 30° C. was determined. A representative number of clones which grew at 43° C. were incubated in absence of any selective markers at permissive temperature. After prolonged growth the loss of the pJC plasmids and the ts phenotype were verified. Each experiment was performed in duplicate. Plasmids carrying no groE genes or encoding the GroE proteins were used as negative or positive controls, respectively.

[5] = tested on: E. coli SV6 groEL673; assay: In vivo complementation of thermosensitive groEL mutant at 43° C., strain SV6; type: cell-based; conditions: for Relative colony forming ability, SV6 groEL673: pJC plasmid, relative to growth at 30° C.
Method: as §3

[6] = tested on: bacteriophage λ (b2cI); assay: Growth (plaque formation) of bacteriophage λ at 30° C. in transformed wild-type and groEL mutant strains; type: cell-based, E. coli; design: key to Growth of bacteriophage λ, SV1 (groEL^+) / Growth of bacteriophage λ, SV2 groEL44: +++: normal plaque-forming ability relative to wild-type groEL^+ strain, in terms of both number and size; ++: 5-fold fewer plaques relative to wild-type groEL^+ strain, or both; 10-fold fewer plaques, or plaque size reduced relative to wild-type groEL^+ strain, or both; +/−: 10^2-fold fewer plaques and plaque size reduced relative to wild-type groEL^+ strain; no visible plaques (<10^−4); conditions: for Growth of bacteriophage λ, SV1 (groEL^+) / Growth of bacteriophage λ, SV2 groEL44 / Growth of bacteriophage λ, SV3 GroEL59 / Growth of bacteriophage λ, SV6 groEL673: pJC plasmid
Text: as §1, §2

[7] = tested on: AI90 (ΔgroEL::kan^R) [pBADEL] E. coli strain; assay: Plating ability of transformed AI90 (ΔgroEL::kan^R) [pBAD-EL] at 37° C. on depletion of GroEL; type: cell-based; design: key: +++: growth identical to that in presence of 0.2% L(+)arabinose (100%), in terms of both number and size; ++: about 50% of the colonies relative to that in presence of 0.2% L(+)arabinose; +: about 30% of the colonies; +/−: ≦5% of the colonies and size reduced relative to that in presence of 0.2% L(+)arabinose; −: no visible colonies
Method: AI90 (ΔgroEL::kan^R) [pBAD-EL] cells were transformed with the pJC vector series. Transformants were selected at 37° C. on LB supplemented with 50 μg.ml^−1 of kanamycin, 120 μg.mL^−1 of ampicillin, 25 μg.mL^1 of chloramphenicol and 0.2% L(+)arabinose. Depletion of GroEL protein was analysed at 37° C. by plating the same quantity of AI90 [pBAD-EL+pJC vectors] cells on LB plates containing 1% D(+)glucose or various amount of arabinose.
Each experiment was performed in triplicate. Plasmids carrying no groE genes or encoding the GroE proteins were used as negative or positive controls, respectively.

CC(=O)N[C@@H](CSC(=O)[C@]1([C@@H](O)C(C)C)NC(=O)[C@H](C)[C@@H]1O)C(=O)O [lactacystin]
proportion of cells with inclusions of mutant Huntington exon 1 ([1]; treatment of transfected cells): increased

HDJ-2/HSDJ: a human HSP40 homologue
inclusion formation ([1]; overexpression in COS-7 cells): increased inclusion formation | inclusion formation ([1]; overexpression in PC12 and SH-SY5Y cells): did not modify inclusion formation

B1: GroES (1-97): E. coli co-chaperone, seven membered ring of 10 kD subunits (protein, UniProt P0A6F9 1-97, looked up)
Co-chaperonin GroES: MNIRPLHDRVIVKRKEVETKSAGGIVLTGSAAAKSTRGEVLAVGNGRILENGEVKPLDVKVGDIVIFNDGYGVKSEKIDNEEVLIMSESDILAIVEA
Effect of over-expression on bacteriophage T4 growth in groEL strains (in words) [2]: allele-specific complementation | Growth of bacteriophage T4, SV1 (groEL^+) [3]: +++ | Growth of bacteriophage T4, SV2 groEL44 [3]: +++ | Growth of bacteriophage T4, SV3 groEL59 [3]: +++ | Growth of bacteriophage T4, SV6 groEL673 [3]: − (no visible plaques (<10^−4)) | Relative colony forming ability, SV2 groEL44 [4]: 5 × 10^−3 | Relative colony forming ability, SV6 groEL673 [5]: <10^−4 | Complementation of groEL mutant strains for bacteriophage λ growth (in words) [6]: allele-specific complementation | Effect of over-expression on plaque formation by bacteriophage λ in SV1 (groE^+) (in words) [6]: had no effect | Growth of bacteriophage λ, SV1 (groEL^+) [6]: +++ | Growth of bacteriophage λ, SV2 groEL44 [6]: +++ | Growth of bacteriophage λ, SV3 GroEL59 [6]: − (no visible plaques (<10^−4)) | Growth of bacteriophage λ, SV6 groEL673 [6]: − (no visible plaques (<10^−4))

B2: sht-GroEL (191-376): histidine-tagged (short histidine tail; sht) minichaperone GroEL(191-376) (protein, UniProt P0A6F5 191-376, looked up, fragment)
chain: EGMQFDRGYLSPYFINKPETGAVELESPFILLADKKISNIREMLPVLEAVAKAGKPLLIIAEDVEGEALATLVVNTMRGIVKVAAVKAPGFGDRRKAMLQDIATLTGGTVISEEIGMELEKATLEDLGQAKRVVINKDTTTIIDGVGEEAAIQGRVAQIRQQIEEATSDYDREKLQERVAKLAGGV
modifications: short histidine tail
Growth of bacteriophage T4, SV1 (groEL^+) [3]: +++ | Growth of bacteriophage T4, SV2 groEL44 [3]: − (no visible plaques (<10^−4)) | Growth of bacteriophage T4, SV3 groEL59 [3]: +++ | Growth of bacteriophage T4, SV6 groEL673 [3]: − (no visible plaques (<10^−4)) | Relative colony forming ability, SV2 groEL44 [4]: <10^−4 | Relative colony forming ability, SV6 groEL673 [5]: <10^−4 | Growth of bacteriophage λ, SV1 (groEL^+) [6]: +++ | Growth of bacteriophage λ, SV2 groEL44 [6]: − (no visible plaques (<10^−4)) | Growth of bacteriophage λ, SV3 GroEL59 [6]: − (no visible plaques (<10^−4)) | Growth of bacteriophage λ, SV6 groEL673 [6]: − (no visible plaques (<10^−4)) | Plating ability ([7]; 0.00 % L(+)arabinose): − | Plating ability ([7]; 0.01 % L(+)arabinose): +/− (≦5% of the colonies and size reduced relative to that in presence of 0.2% L(+)arabinose) | Plating ability ([7]; 0.10 % L(+)arabinose): + (about 30% of the colonies) | Plating ability ([7]; 0.15 % L(+)arabinose): ++ (about 50% of the colonies relative to that in presence of 0.2% L(+)arabinose)

B3: Gp31 (1-111): wild-type bacteriophage T4 Gp31 (gene product), cpn10 family co-chaperonin (protein, UniProt P17313 1-111, looked up)
Capsid assembly protein Gp31: MSEVQQLPIRAVGEYVILVSEPAQAGDEEVTESGLIIGKRVQGEVPELCVVHSVGPDVPEGFCEVGDLTSLPVGQIRNVPHPFVALGLKQPKEIKQKFVTCHYKAIPCLYK
Effect of over-expression on bacteriophage T4 growth in groEL strains (in words) [2]: allows T4 growth in all strains | Growth of bacteriophage T4, SV1 (groEL^+) [3]: +++ | Growth of bacteriophage T4, SV2 groEL44 [3]: +++ | Growth of bacteriophage T4, SV3 groEL59 [3]: +++ | Growth of bacteriophage T4, SV6 groEL673 [3]: +++ | Relative colony forming ability, SV2 groEL44 [4]: 0.5 × 10^−3 | Relative colony forming ability, SV6 groEL673 [5]: <10^−4 | Growth of bacteriophage λ, SV1 (groEL^+) [6]: +++ | Growth of bacteriophage λ, SV2 groEL44 [6]: − (no visible plaques (<10^−4)) | Growth of bacteriophage λ, SV3 GroEL59 [6]: − (no visible plaques (<10^−4)) | Growth of bacteriophage λ, SV6 groEL673 [6]: − (no visible plaques (<10^−4))

B4: sht-GroEL (193-335): shortest minichaperone, short histidine tail GroEL residues 193-335 (protein, UniProt P0A6F5 193-335, looked up, fragment)
chain: MQFDRGYLSPYFINKPETGAVELESPFILLADKKISNIREMLPVLEAVAKAGKPLLIIAEDVEGEALATLVVNTMRGIVKVAAVKAPGFGDRRKAMLQDIATLTGGTVISEEIGMELEKATLEDLGQAKRVVINKDTTTIIDG
modifications: short histidine tail
Complementation of the groEL44 defect in SV2 (in words) [4]: complements | Relative colony forming ability, SV2 groEL44 [4]: 0.05-0.09 | Complementation of the groEL673 defect in SV6 (in words) [5]: less well | Relative colony forming ability, SV6 groEL673 [5]: 0.03-0.05

B5: sht-GroEL (191-345): short histidine tail minichaperone, GroEL residues 191-345 (protein, UniProt P0A6F5 191-345, looked up, fragment)
chain: EGMQFDRGYLSPYFINKPETGAVELESPFILLADKKISNIREMLPVLEAVAKAGKPLLIIAEDVEGEALATLVVNTMRGIVKVAAVKAPGFGDRRKAMLQDIATLTGGTVISEEIGMELEKATLEDLGQAKRVVINKDTTTIIDGVGEEAAIQGR
modifications: short histidine tail
Relative colony forming ability, SV2 groEL44 [4]: 0.01-0.02 | Complementation of the groEL673 defect in SV6 (in words) [5]: complemented | Relative colony forming ability, SV6 groEL673 [5]: 0.07-0.09
